How the values were obtained:
[1] = substrate: c1cc2c(cc1[C@H]1OC[C@H]3[C@@H]1CO[C@@H]3c1ccc3c(c1)OCO3)OCO2; assay: Activity of recombinant human CYP2C9 expressed in Saccharomyces cerevisiae AH22 cells assessed as enzyme-mediated sesamin monocatecholization after 15 mins by Michaelis-Menten plot analysis in presence of NADPH; type: ADME, cell-based
[2] = substrate: c1cc2c(cc1[C@H]1OC[C@H]3[C@@H]1CO[C@@H]3c1ccc3c(c1)OCO3)OCO2; assay: Activity of recombinant human CYP1A2 expressed in Saccharomyces cerevisiae AH22 cells assessed as enzyme-mediated sesamin monocatecholization after 15 mins by Michaelis-Menten plot analysis in presence of NADPH; type: ADME, cell-based
[3] = substrate: [H][C@]12CO[C@@H](c3ccc(O)c(O)c3)[C@@]1([H])CO[C@@H]2c1ccc2c(c1)OCO2; assay: (§1) Drug metabolism in human liver cytosol assessed as COMT-mediated methylation after 10 to 30 mins by HPLC analysis in presence of SAM; type: ADME
[4] = substrate: [H][C@]12CO[C@@H](c3ccc4c(c3)OCO4)[C@@]1([H])CO[C@@H]2c1ccc(O)c(O)c1; assay: as §1; type: ADME
[5] = substrate: [H][C@]12CO[C@H](c3ccc4c(c3)OCO4)[C@@]1([H])CO[C@@H]2c1ccc(O)c(O)c1; assay: as §1; type: ADME
[6] = substrate: [H][C@]12CO[C@H](c3ccc4c(c3)OCO4)[C@@]1([H])CO[C@@H]2c1ccc(O)c(O)c1; assay: Activity of recombinant human CYP2C19 expressed in Saccharomyces cerevisiae AH22 cells assessed as enzyme-mediated sesamin dicatechol formation after 15 mins by HPLC analysis in presence of NADPH; type: ADME, cell-based
[7] = substrate: [H][C@]12CO[C@@H](c3ccc(O)c(O)c3)[C@@]1([H])CO[C@@H]2c1ccc2c(c1)OCO2; assay: (§2) Activity of recombinant human CYP2C19 expressed in Saccharomyces cerevisiae AH22 cells assessed as enzyme-mediated episesamin dicatechol formation after 15 mins by HPLC analysis in presence of NADPH; type: ADME, cell-based
[8] = substrate: [H][C@]12CO[C@@H](c3ccc4c(c3)OCO4)[C@@]1([H])CO[C@@H]2c1ccc(O)c(O)c1; assay: as §2; type: ADME, cell-based
[9] = substrate: [H][C@]12CO[C@@H](c3ccc(O)c(O)c3)[C@@]1([H])CO[C@@H]2c1ccc2c(c1)OCO2; assay: (§3) Drug metabolism in Sprague-Dawley rat liver cytosol assessed as COMT-mediated methylation after 10 to 30 mins by HPLC analysis in presence of SAM; type: ADME
[10] = substrate: [H][C@]12CO[C@@H](c3ccc4c(c3)OCO4)[C@@]1([H])CO[C@@H]2c1ccc(O)c(O)c1; assay: as §3; type: ADME
[11] = substrate: [H][C@]12CO[C@H](c3ccc4c(c3)OCO4)[C@@]1([H])CO[C@@H]2c1ccc(O)c(O)c1; assay: as §3; type: ADME

B1: Cytochrome P450 2C9 (Homo sapiens) (protein)
chain: MDSLVVLVLCLSCLLLLSLWRQSSGRGKLPPGPTPLPVIGNILQIGIKDISKSLTNLSKVYGPVFTLYFGLKPIVVLHGYEAVKEALIDLGEEFSGRGIFPLAERANRGFGIVFSNGKKWKEIRRFSLMTLRNFGMGKRSIEDRVQEEARCLVEELRKTKASPCDPTFILGCAPCNVICSIIFHKRFDYKDQQFLNLMEKLNENIKILSSPWIQICNNFSPIIDYFPGTHNKLLKNVAFMKSYILEKVKEHQESMDMNNPQDFIDCFLMKMEKEKHNQPSEFTIESLENTAVDLFGAGTETTSTTLRYALLLLLKHPEVTAKVQEEIERVIGRNRSPCMQDRSHMPYTDAVVHEVQRYIDLLPTSLPHAVTCDIKFRNYLIPKGTTILISLTSVLHDNKEFPNPEMFDPHHFLDEGGNFKKSKYFMPFSAGKRICVGEALAGMELFLFLTSILQNFNLKSLVDPKNLDTTPVVNGFASVPPFYQLCFIPV
Work on B1 yielded a Km [1] of 5.4 µM, a kcat [1] of 0.0517 s⁻¹ and a kcat/Km [1] of 9500 M⁻¹ s⁻¹.

B2: Cytochrome P450 1A2 (Homo sapiens) (protein)
chain: MALSQSVPFSATELLLASAIFCLVFWVLKGLRPRVPKGLKSPPEPWGWPLLGHVLTLGKNPHLALSRMSQRYGDVLQIRIGSTPVLVLSRLDTIRQALVRQGDDFKGRPDLYTSTLITDGQSLTFSTDSGPVWAARRRLAQNALNTFSIASDPASSSSCYLEEHVSKEAKALISRLQELMAGPGHFDPYNQVVVSVANVIGAMCFGQHFPESSDEMLSLVKNTHEFVETASSGNPLDFFPILRYLPNPALQRFKAFNQRFLWFLQKTVQEHYQDFDKNSVRDITGALFKHSKKGPRASGNLIPQEKIVNLVNDIFGAGFDTVTTAISWSLMYLVTKPEIQRKIQKELDTVIGRERRPRLSDRPQLPYLEAFILETFRHSSFLPFTIPHSTTRDTTLNGFYIPKKCCVFVNQWQVNHDPELWEDPSEFRPERFLTADGTAINKPLSEKMMLFGMGKRRCIGEVLAKWEIFLFLAILLQQLEFSVPPGVKVDLTPIYGLTMKHARCEHVQARLRFSIN
B2 was tested, and the Km [2] was 15 µM, the kcat [2] was 0.0833 s⁻¹ and the kcat/Km [2] was 5500 M⁻¹ s⁻¹.

B3: Catechol O-methyltransferase (Homo sapiens) (protein)
chain: MPEAPPLLLAAVLLGLVLLVVLLLLLRHWGWGLCLIGWNEFILQPIHNLLMGDTKEQRILNHVLQHAEPGNAQSVLEAIDTYCEQKEWAMNVGDKKGKIVDAVIQEHQPSVLLELGAYCGYSAVRMARLLSPGARLITIEINPDCAAITQRMVDFAGVKDKVTLVVGASQDIIPQLKKKYDVDTLDMVFLDHWKDRYLPDTLLLEECGLLRKGTVLLADNVICPGAPDFLAHVRGSSCFECTHYQSFLEYREVVDGLEKAIYKGPGSEAGP
B3 showed a Km [3] of 2.5 µM, a Vmax [3] of 0.00071 µmol/min and a Km [4] of 2.4 µM. The Vmax [4] was 0.00059 µmol/min, the Km [5] was 5.6 µM and the Vmax [5] was 0.0013 µmol/min.

B4: Cytochrome P450 2C19 (Homo sapiens) (protein)
chain: MDPFVVLVLCLSCLLLLSIWRQSSGRGKLPPGPTPLPVIGNILQIDIKDVSKSLTNLSKIYGPVFTLYFGLERMVVLHGYEVVKEALIDLGEEFSGRGHFPLAERANRGFGIVFSNGKRWKEIRRFSLMTLRNFGMGKRSIEDRVQEEARCLVEELRKTKASPCDPTFILGCAPCNVICSIIFQKRFDYKDQQFLNLMEKLNENIRIVSTPWIQICNNFPTIIDYFPGTHNKLLKNLAFMESDILEKVKEHQESMDINNPRDFIDCFLIKMEKEKQNQQSEFTIENLVITAADLLGAGTETTSTTLRYALLLLLKHPEVTAKVQEEIERVIGRNRSPCMQDRGHMPYTDAVVHEVQRYIDLIPTSLPHAVTCDVKFRNYLIPKGTTILTSLTSVLHDNKEFPNPEMFDPRHFLDEGGNFKKSNYFMPFSAGKRICVGEGLARMELFLFLTFILQNFNLKSLIDPKDLDTTPVVNGFASVPPFYQLCFIPV
B4 was tested, and the Km [6] was 5.1 µM, the kcat [6] was 0.233 s⁻¹ and the Km [7] was 7.3 µM. It also gave a kcat [7] of 0.25 s⁻¹, a Km [8] of 7.3 µM and a kcat [8] of 0.25 s⁻¹.

B5: Catechol O-methyltransferase (Rattus norvegicus) (protein)
chain: MPLAAVSLGLLLLALLLLLRHLGWGLVTIFWFEYVLQPVHNLIMGDTKEQRILRYVQQNAKPGDPQSVLEAIDTYCTQKEWAMNVGDAKGQIMDAVIREYSPSLVLELGAYCGYSAVRMARLLQPGARLLTMEMNPDYAAITQQMLNFAGLQDKVTILNGASQDLIPQLKKKYDVDTLDMVFLDHWKDRYLPDTLLLEKCGLLRKGTVLLADNVIVPGTPDFLAYVRGSSSFECTHYSSYLEYMKVVDGLEKAIYQGPSSPDKS
For B5, the Km [9] was 5.5 µM, the Vmax [9] was 0.0024 µmol/min and the Km [10] was 7.7 µM. The Vmax [10] was 0.0032 µmol/min, the Km [11] was 9.2 µM and the Vmax [11] was 0.0033 µmol/min.

Source: ChEMBL document CHEMBL3525932, “Comparison of metabolism of sesamin and episesamin by drug-metabolizing enzymes in human liver” (Drug Metab Dispos, 2012)
